Reference: publication PMC6566870
Like-named read-outs stand apart in the source and are kept apart here.

Columns and labels:
[1] = molecular target: N-terminally His6-tagged cMyc-tagged human CCR1 (human) (UniProt P32246); test: radioligand binding; competitive displacement of 50 pM 125I-CCL3 from membranes of Flp-In T-REx 293 cells expressing CCR1; 2 h at 37 °C; two sets of experiments (Table 1, Table 3)
[2] = molecular target: N-terminally His6-tagged cMyc-tagged human CCR1 (human) (UniProt P32246)
[3] = molecular target: N-terminally His6-tagged cMyc-tagged human CCR1 (human) (UniProt P32246); remark: listed apart in the source
[4] = molecular target: N-terminally His6-tagged cMyc-tagged human CCR1 (human) (UniProt P32246); remark: listed apart in the source
[5] = molecular target: N-terminally His6-tagged cMyc-tagged human CCR1 (human) (UniProt P32246); remark: listed apart in the source
[6] = molecular target: N-terminally His6-tagged cMyc-tagged human CCR1 (human) (UniProt P32246); test: radioligand binding; competitive displacement of 50 pM 125I-CCL3 from membranes of Flp-In T-REx 293 cells expressing CCR1; 2 h at 37 °C; two sets of experiments (Table 1, Table 3); remark: listed apart in the source

N-terminally His6-tagged cMyc-tagged human CCR1 (human), sequence (P32246 whole entry): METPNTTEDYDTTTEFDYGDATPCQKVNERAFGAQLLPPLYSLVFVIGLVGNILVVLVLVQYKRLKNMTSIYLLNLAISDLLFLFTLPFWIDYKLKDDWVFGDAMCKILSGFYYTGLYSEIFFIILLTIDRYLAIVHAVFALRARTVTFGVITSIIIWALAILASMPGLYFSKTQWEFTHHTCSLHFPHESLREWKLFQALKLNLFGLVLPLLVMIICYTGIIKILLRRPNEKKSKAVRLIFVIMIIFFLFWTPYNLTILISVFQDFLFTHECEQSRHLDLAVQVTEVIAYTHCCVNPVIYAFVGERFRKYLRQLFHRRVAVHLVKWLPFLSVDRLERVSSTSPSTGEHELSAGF

Substance | IC50 [1] | pIC50 [1] | ERK1/2 phosphorylation, EC50 [2] | ERK1/2 phosphorylation, Emax [2] | ERK1/2 phosphorylation, pEC50 [2] | Gαi1 activation (BRET), EC50 [2] | Gαi1 activation (BRET), Emax [2] | Gαi1 activation (BRET), pEC50 [2] | Gαi2 activation (BRET), EC50 [2] | Gαi2 activation (BRET), Emax [2] | Gαi2 activation (BRET), pEC50 [2] | inhibition of forskolin-induced cAMP production, EC50 [2] | inhibition of forskolin-induced cAMP production, Emax [2] | inhibition of forskolin-induced cAMP production, pEC50 [2] | transduction coefficient Log(τ/KA), GPA αi1 [3] | transduction coefficient Log(τ/KA), GPA αi2 [3] | transduction coefficient Log(τ/KA), cAMP [3] | transduction coefficient Log(τ/KA), pERK [3] | other results
CCL15(N-CCL7) (ligand) | 0.54 nM | 9.3 -log M | 1.3 nM | 28.2% | 8.9 -log M | 0.7 nM | 91.2% | 9.2 -log M | 1.5 nM | 124% | 8.8 -log M | 0.2 nM | 35.5% | 9.7 -log M | 9 | 8.5 | 9.1 | 8.8 | –
CCL15(Δ26) (ligand) | 0.028 nM | 10.6 -log M | – | – | – | – | – | – | 1.2 nM | 114% | 8.9 -log M | – | – | – | – | 8.3 | – | – | transduction coefficient Log(τ/KA), GPA αi1 [4]: 8.6; transduction coefficient Log(τ/KA), cAMP [4]: 8.1; transduction coefficient Log(τ/KA), pERK [4]: 8.4; inhibition of forskolin-induced cAMP production, EC50 (Table 3) [2]: 2.7 nM; ERK1/2 phosphorylation, EC50 [5]: 2.3 nM; ERK1/2 phosphorylation, Emax [5]: 25.4%; ERK1/2 phosphorylation, pEC50 [5]: 8.6 -log M; G protein activation (Gαi1, BRET), EC50 [5]: 1 nM; G protein activation (Gαi1, BRET), Emax [5]: 111%; G protein activation (Gαi1, BRET), pEC50 [5]: 9 -log M; inhibition of forskolin-induced cAMP production, EC50 [5]: 2.8 nM; inhibition of forskolin-induced cAMP production, Emax [5]: 28.7%; inhibition of forskolin-induced cAMP production, pEC50 [5]: 8.6 -log M; transduction coefficient Log(τ/KA), GPA αi1 (second set of experiments) [3]: 8.7; transduction coefficient Log(τ/KA), cAMP (second set of experiments) [3]: 8.4; transduction coefficient Log(τ/KA), pERK (second set of experiments) [3]: 8.7; IC50 [6]: 0.093 nM; pIC50 [6]: 10.1 -log M
CCL15(Δ28) (ligand) | 0.074 nM | 10.1 -log M | 2.1 nM | 28.3% | 8.7 -log M | 2.3 nM | 86.2% | 8.6 -log M | 1.3 nM | 140% | 8.9 -log M | 0.4 nM | 35.7% | 9.4 -log M | 8.4 | 8.6 | 8.9 | 8.6 | –
